Data on 13 molecules can be found in US20240092919A1 (Ablynx, published 2024).

Where a chain is given by its changes, count along the chain named. Like-named read-outs stand apart in the source and are kept apart here.

Experiment [1] concerns the target T1, Cynomolgus TCR/cynomolgus CD3 complex on CHO-K1 cells (rhesus monkey (constant domains …)).
T1 construct: also called CHO-K1 cyTCR/cyCD3
T1 TCR alpha: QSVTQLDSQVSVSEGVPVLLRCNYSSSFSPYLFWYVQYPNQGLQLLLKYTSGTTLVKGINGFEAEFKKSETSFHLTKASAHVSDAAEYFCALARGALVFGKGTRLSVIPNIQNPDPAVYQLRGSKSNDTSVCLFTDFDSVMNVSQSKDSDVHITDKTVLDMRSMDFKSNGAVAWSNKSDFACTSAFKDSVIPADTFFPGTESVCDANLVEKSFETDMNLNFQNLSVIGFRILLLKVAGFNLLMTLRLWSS
T1 TCR beta: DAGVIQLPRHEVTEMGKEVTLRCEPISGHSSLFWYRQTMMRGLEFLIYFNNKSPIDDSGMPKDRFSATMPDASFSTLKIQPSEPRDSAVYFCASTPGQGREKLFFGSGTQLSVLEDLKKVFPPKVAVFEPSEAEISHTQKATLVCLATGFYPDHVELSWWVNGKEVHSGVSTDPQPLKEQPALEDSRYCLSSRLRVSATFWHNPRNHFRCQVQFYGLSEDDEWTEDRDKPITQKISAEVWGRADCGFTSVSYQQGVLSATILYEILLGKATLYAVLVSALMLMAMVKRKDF
T1 chain 3: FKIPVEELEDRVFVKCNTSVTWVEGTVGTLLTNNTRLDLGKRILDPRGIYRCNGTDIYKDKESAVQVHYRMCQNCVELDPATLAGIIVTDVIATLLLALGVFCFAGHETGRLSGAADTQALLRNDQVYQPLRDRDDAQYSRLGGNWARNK
T1 chain 4: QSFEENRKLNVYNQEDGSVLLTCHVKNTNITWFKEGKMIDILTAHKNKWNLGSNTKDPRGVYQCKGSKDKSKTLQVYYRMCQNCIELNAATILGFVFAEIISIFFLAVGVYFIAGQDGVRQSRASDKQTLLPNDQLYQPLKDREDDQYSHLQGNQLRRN
T1 chain 5: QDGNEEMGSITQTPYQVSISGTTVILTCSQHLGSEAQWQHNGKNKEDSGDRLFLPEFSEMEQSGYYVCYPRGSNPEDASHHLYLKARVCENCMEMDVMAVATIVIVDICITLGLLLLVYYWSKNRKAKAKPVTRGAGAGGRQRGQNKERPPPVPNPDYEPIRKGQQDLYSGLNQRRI
T1 chain 6: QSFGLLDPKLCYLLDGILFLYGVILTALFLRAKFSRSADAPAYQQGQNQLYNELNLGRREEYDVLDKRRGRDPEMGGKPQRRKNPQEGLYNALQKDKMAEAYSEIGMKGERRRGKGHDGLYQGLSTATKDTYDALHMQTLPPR
In words: flow cytometry on CHO-K1 cyTCR/cyCD3 cells; Flag3-His6-tagged ISVD, anti-FLAG M2 + PE goat anti-mouse; MFI (mean PE) [panel CHO-K1 cyTCR/cyCD3]. In general terms: Flow cytometry measures light scatter and fluorescence of single cells or particles in a stream.
Method: Next, cells were washed 3 times with FACS buffer and incubated with 1 μg/ml ANTI-FLAG® M2 Ab (Sigma, F1804) and washed again. […] Subsequently, cells were resuspended in FACS buffer supplemented with 5 nM TO-PRO®-3 Iodide to distinguish live from dead cells, which are removed during the gating procedure. Cells were analyzed using a FACS Array flow cytometer (BD Biosciences) and Flowing Software. First a P1 population which represented more than 80% of the total cell population was selected based on FSC-SSC distribution. In this gate, 10000 cells were counted during acquisition. From this population the TO-PRO®-3+ cells (dead cells) were excluded and the mean fluorescence intensity (MFI) PE value was calculated.

Experiment [2] addresses T2, Human T cell receptor on human primary T cells (human, UniProt P01848 1-140; P01850 1-176).
T2 construct: whole, on cells
T2 TCR alpha (looked up): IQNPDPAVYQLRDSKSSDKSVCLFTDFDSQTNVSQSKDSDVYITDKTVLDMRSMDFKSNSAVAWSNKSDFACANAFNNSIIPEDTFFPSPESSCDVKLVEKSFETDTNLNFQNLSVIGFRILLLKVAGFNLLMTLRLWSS
T2 TCR beta (looked up): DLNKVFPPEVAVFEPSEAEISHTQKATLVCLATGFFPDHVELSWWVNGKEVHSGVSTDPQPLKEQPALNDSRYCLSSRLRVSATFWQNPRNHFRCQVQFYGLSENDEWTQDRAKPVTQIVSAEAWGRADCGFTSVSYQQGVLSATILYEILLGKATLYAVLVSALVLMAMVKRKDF
Kind of experiment: flow cytometry on human primary T cells; Flag3-His6-tagged ISVD, anti-FLAG M2 + PE goat anti-mouse; MFI (mean PE).
Method: (§2) The ISVD variants were characterized for binding to CHO-K1 huTCR(2XN9)/huCD3 or to human and cynomolgus primary T cells. […] Next, cells were washed 3 times with FACS buffer and incubated with 1 μg/ml ANTI-FLAG® M2 Ab (Sigma, F1804) and washed again. […] Subsequently, cells were resuspended in FACS buffer supplemented with 5 nM TO-PRO®-3 Iodide to distinguish live from dead cells, which are removed during the gating procedure. Cells were analyzed using a FACS Array flow cytometer (BD Biosciences) and Flowing Software. First a P1 population which represented more than 80% of the total cell population was selected based on FSC-SSC distribution. In this gate, 10000 cells were counted during acquisition. From this population the TO-PRO®-3+cells (dead cells) were excluded and the mean fluorescence intensity (MFI) PE value was calculated.

For a further experiment, the target named is T3, cynomolgus CD33 on cells (cynomolgus monkey).
T3 construct: whole, on cells; also called CHO cy CD33; CHO Flp-In cynoCD33
Kind of experiment: flow cytometry on transfected cells, cynomolgus CD33 against human CD33.

For experiment [3], the target named is T4, human T cell receptor on human primary T cells (human, UniProt P01848 1-140; P01850 1-176).
T4 construct: whole, on cells
T4 TCR alpha (looked up): T2 TCR alpha (looked up)
T4 TCR beta (looked up): T2 TCR beta (looked up)
Kind of experiment: flow cytometry, human primary T cells.
Method: Dose-dependent binding of the purified monovalent ISVD variants to CHO-K1 huTCR(2XN9)/huCD3 overexpressing cells or human primary T cells was evaluated by flow cytometry. […] Next, cells were washed 3 times with FACS buffer and incubated with 1 μg/ml THE™ His Tag Antibody, mAb, Mouse (Genscript, A00186) and washed again. […] Subsequently, cells were resuspended in FACS buffer supplemented with 5 nM TO-PRO®-3 Iodide to distinguish live from dead cells, which are removed during the gating procedure. Cells were analyzed using a FACS Array flow cytometer (BD Biosciences) and Flowing Software. First a P1 population which represented more than 80% of the total cell population was selected based on FSC-SSC distribution. In this gate, 10000 cells were counted during acquisition. From this population the TO-PRO®-3+ cells (dead cells) were excluded and the mean fluorescence intensity (MFI) PE value was calculated.

Experiment [4] addresses T5, Cynomolgus TCR(AEA41865/AEA41866)-zipper protein (cynomolgus monkey).
T5 construct: also called cyTCR-zipper protein; cynoTCR zipper
T5 TCR alpha: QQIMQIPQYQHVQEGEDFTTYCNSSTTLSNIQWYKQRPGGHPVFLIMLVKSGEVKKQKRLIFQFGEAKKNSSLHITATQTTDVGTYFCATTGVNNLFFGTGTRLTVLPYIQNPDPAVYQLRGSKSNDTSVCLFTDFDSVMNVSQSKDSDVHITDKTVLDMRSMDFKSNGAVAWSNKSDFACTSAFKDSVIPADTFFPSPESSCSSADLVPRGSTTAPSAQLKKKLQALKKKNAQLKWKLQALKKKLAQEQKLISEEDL
T5 TCR beta: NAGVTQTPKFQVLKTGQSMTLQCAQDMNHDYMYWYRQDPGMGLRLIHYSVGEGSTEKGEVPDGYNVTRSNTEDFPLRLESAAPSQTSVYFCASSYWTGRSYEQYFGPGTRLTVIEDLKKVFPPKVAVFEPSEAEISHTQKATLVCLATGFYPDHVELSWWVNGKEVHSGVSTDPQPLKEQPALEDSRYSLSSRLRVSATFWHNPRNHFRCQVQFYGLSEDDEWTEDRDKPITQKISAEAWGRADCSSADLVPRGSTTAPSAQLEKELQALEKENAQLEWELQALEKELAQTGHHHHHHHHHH
In words: higher koff divided by lower koff, humanTCR zipper vs cynoTCR zipper (SPR).

Experiment [5] has as its target T2, Human T cell receptor on human primary …. Kind of experiment: flow cytometry, human primary T cells.
Method: as §2
In experiment [6] the target is T5, Cynomolgus …. In words: SPR, ProteOn XPR36, 25 C, immobilised TCR-zipper. On the technique in general: SPR reads the build-up and loss of mass on a sensor chip optically.
From the text: HuTCR-zipper or cyTCR-zipper protein was immobilized on a GLC sensor chip (between 100-200 RU) via amine coupling chemistry, using EDC/NHS for activation of the carboxyl groups on the chip surface (running buffer: HBS-EP+, pH7.4). […] Processed sensorgrams were fitted with the Langmuir model (1:1 interaction) using ProteOn Manager 3.1.0 (Version 3.1.0.6) software.
Experiment [7] has as its target T2, Human T cell receptor on human primary …. Kind of experiment: flow cytometry, human primary T cells.
Method: as §2
For experiment [8], the target named is T5, Cynomolgus …. Kind of experiment: SPR off-rate, ProteOn XPR36, immobilised TCR-zipper.
In experiment [9] the target is T2, Human T cell receptor on human primary …. In words: flow cytometry competition with Flag3-His6-tagged anti-TCR ISVD ligand, human primary T cells.
Method: (§3) Subsequently, cells were resuspended in FACS buffer supplemented with 1 μg/ml Propidium Iodide (PI, Sigma, P4170) to distinguish live from dead cells. Cells were analyzed using a FACS Array flow cytometer (BD Biosciences) using Flowing Software. First a P1 population which represented more than 80% of the total cell population was selected based on FSC-SSC distribution. In this gate, 10000 cells were counted during acquisition. From this population the Propidium iodide or TO-PRO©-3 Iodide positive cells (dead cells) were excluded and the median or Mean PE value was calculated.
Experiment [10] has as its target T6, Cynomolgus T cell receptor on the HSC-F cynomolgus T cell line (cynomolgus monkey).
T6 construct: whole, on cells; also called HSC-F cells; HSC-F cyno T cell line (NIBIO JCRB1164)
Kind of experiment: flow cytometry competition with Flag3-His6-tagged anti-TCR ISVD ligand, HSC-F cells.
Method: as §3

Experiment [11] addresses T7, cynomolgus TCR on primary cynomolgus T cells (cynomolgus).
T7 construct: whole, on cells; also called cyno TCRαβ
Kind of experiment: flow cytometry competition on primary cynomolgus T cells; competitor Flag-tagged T017000623 at EC30. The procedure: (§1) T cells (human T cells obtained as described in Example 3 and cyno T cells purchased from LPT laboratory, Germany) were thawed and counted on the day of the assay and diluted to a concentration of 1E+06 cells/mL, before adding 75 μL to the wells of a V-bottom 96-well plate (Greiner, cat no 651180). Cells were washed once with cold FACS buffer, before adding 25 μL Nb and 25 μL competitor to the wells. […] Cells were resuspended and plates were incubated at 4° C. for 90 minutes, after which plates were washed twice in cold FACS buffer. […] Plates were washed twice in cold FACS buffer. […] Plates were washed twice in cold FACS buffer. Cells were resuspended in 55 μL 1/1000 diluted Propidium Iodide (Sigma-Aldrich, cat no P4170) in FACS buffer before acquiring data on the MACSQuant X (Miltenyi biotec).

Experiment [12] has as its target T8, Cynomolgus TCR(AEA41865/AEA41866)-zipper protein (cynomolgus).
T8 construct: also called cyTCR-zipper; cyTCR(AEA41865)-zipper
T8 TCR alpha: T5 TCR alpha
T8 TCR beta: T5 TCR beta
Kind of experiment: SPR, ProteOn XPR36; TCR-zipper protein immobilised by amine coupling. How it is done:
Purified ISVDs were injected for 2 minutes (flow rate 45 μL/min) at different concentrations (between 0.2 nM and 200 nM) and dissociation was followed for 900 s. Regeneration was performed by injecting 3 M MgCl₂ for 3 minutes (flow rate 90 μL/min). […] Processed sensorgrams were analyzed based on the 1:1 interaction model (Langmuir binding model) using ProteOn Manager 3.1.0 (Version 3.1.0.6) software.

For experiment [13], the target named is T9, human TCR on primary human T cells (human, UniProt P01848 1-140; P01850 1-176).
T9 construct: whole, on cells; also called human TCRαβ
T9 TCR alpha (looked up): T2 TCR alpha (looked up)
T9 TCR beta (looked up): T2 TCR beta (looked up)
In words: flow cytometry competition on primary human T cells; competitor Flag-tagged T017000624 at EC30. How it is done:
as §1

Experiment [14] concerns the target T10, cynomolgus CD123 on cells (cynomolgus monkey).
T10 construct: whole, on cells; also called HEK293 cyno CD123; cynomolgus CD123 transfected cell lines
In words: flow cytometry on transfected cells, cynomolgus CD123 against human CD123.

What is called EC50 is the concentration giving half of the maximal effect. One may read the Kd as a measure of binding affinity in units of concentration. One may read the koff as a measure of how fast the partners let go of each other. The IC50 is the concentration that gives 50% inhibition.

B1: cAbLys3 (VHH, not shown: small tags and cut ends)
VHH: DVQLQASGGGSVQAGGSLRLSCAASGYTIGPYCMGWFRQAPGKEREGVAAINMGGGITYYADSVKGRFTISQDNAKNTVYLLMNSLEPEDTAIYYCAADSTIYASYYECGHGLSTGGYGYDSWGQGTQVTVSS
notes: also called irrelevant anti-egg lysozyme ISVD
Consider B1, for which the binding result in [1] and in experiment [2] was “no binding (tested: 3e-6 M)” in each case.

B2: monovalent CD33 building block (VHH)
VHH: EVQLVESGGGVVQPGGSLRLSCAASGGVFRLNSMGWFRQAPGKQRELVAIITSDGDTNYADSVKGRFTISRDQAKNTVYLQMNSLRPEDTALYYCQITYSTSSYSFPINTWGQGTLVTVSS
For B2, in the experiment with cynomolgus CD33 on cells, the “difference in EC50 between human and cynomolgus monkey” value is under 2 fold.

B3: T017000351 (VHH, not shown: small tags and cut ends)
VHH: EVQLVESGGGVVQPGGSLRLSCVASGDVHKINFLGWYRQAPGKEREKVAHISIGDQTDYADSAKGRFTISRDESKNMVYLQMNSLRPEDTALYFCRAFSRIYPYDYWGQGTLVTVSS
notes: also called T0170000351
For B3, the 50% effective concentration (EC50) in experiment [3] was 110 nM.

B4: T017000141 (VHH, not shown: small tags and cut ends)
VHH: B3 VHH
Consider B4, for which, in [4], the “Gap in off-rate human vs cyno” value was found to be 12.4 fold. The response in experiment [5] was half-maximal at 100 nM (EC50). The molecule also returned an equilibrium dissociation constant (Kd) in [6] of 220 nM.

B5: T017000624 (VHH, not shown: small tags and cut ends)
VHH: B3 VHH with D27Y, L34Y, M77T, F94Y, F98L, Y102W
Turning to B5, the results for the EC50 in [7] and in [5] were 45 nM and 46 nM, respectively. For the same molecule, the “Gap in off-rate human vs cyno” value in [4] is 4.5 fold. In experiment [6], this molecule came in with a Kd of 6.3 nM.

B6: T0170056G05 (VHH)
VHH: B3 VHH with V11L, R86K, L92V
notes: also called T01700056G05; parental ISVD
B6 yielded an EC50 in experiment [3] of 110 nM.

B7: T017000687 (VHH, not shown: small tags and cut ends)
VHH: B3 VHH with D27S, K30Q, L34Y, M77T, F94Y, F98L, Y102W
B7: the koff in experiment [8] was found to be 0.00427 s⁻¹.

B8: T017000685 (VHH, not shown: small tags and cut ends)
VHH: B3 VHH with D27E, K30Q, L34Y, M77T, F94Y, F98L, Y102W
B8 displayed a koff in [8] of 0.00399 s⁻¹.

B9: T017000681 (VHH)
VHH: B3 VHH with E1D, D27Y, L34Y, M77T, L92T, F94Y, F98L, Y102W
Turning to B9, the IC50 in [9] amounted to 92 nM; in [10], 730 nM.

B10: T017000345 (VHH, not shown: small tags and cut ends)
VHH: B3 VHH with F94Y
B10 registered a concentration giving a half-maximal response (EC50) in experiment [3] of 160 nM.

B11: T017000679 (VHH)
VHH: B3 VHH with E1D, D27Y, L34Y, M77T, F94Y, F98L, Y102W
B11: the IC50 in experiment [9] was 100 nM; in [10], 620 nM.

B12: T017000698 (bispecific antibody)
chain: DVQLVESGGGVVQPGGSLRLSCVASGYVHKINFYGWYRQAPGKEREKVAHISIGDQTDYADSAKGRFTISRDESKNTVYLQMNSLRPEDTAAYYCRALSRIWPYDYWGQGTLVTVSSGGGGSGGGSEVQLVESGGGVVQPGGSLRLSCAASGFTFRSFGMSWVRQAPGKGPEWVSSISGSGSDTLYADSVKGRFTISRDNSKNTLYLQMNSLRPEDTALYYCTIGGSLSRSSQGTLVTVSSA
notes: also called T017000680-9GS-ALB23002-A; TCE01-9GS-ALB23002-A
Take B12: the IC50 worked out at 250 nM in experiment [11] and 190 nM in experiment [13]. The Kd in [12] stood at 11 nM.

B13: monovalent CD123 building block (VHH)
VHH: EVQLVESGGGVVQPGGSLRLSCAASGVIFSGNVMGWYRRQAPGKEREWVAAIAEGGSILYRDSVKGRFTISRDNAKNTVYLQMNSLRPEDTALYYCNSHPPVLPYWGQGTLVTVSS
Turning to B13, in experiment [14], the “difference in EC50 between human and cynomolgus monkey” value turned out to be 3 fold.
